Here are results for 1 protein from publication PMC3431356, “Staphylococcus aureus Methicillin-Resistance Factor fmtA Is Regulated by the Global Regulator SarA” (PLoS ONE, 2012).

This series deals with the molecule itself. Briefly: SEC; Superdex 75 (10/300) column, 50 mM sodium phosphate pH 7.0, 0.4 mL/min, calibrated with four standards (LMW calibration kit); mass estimated from elution.

B1: staphylococcal accessory regulator A (SarA) (natural protein)
chain: MAITKINDCFELLSMVTYADKLKSLIKKEFSISFEEFAVLTYISENKEKEYYLKDIINHLNYKQPQVVKAVKILSQEDYFDKKRNEHDERTVLILVNAQQRKKIESLLSRVNKRITEANNEIEL
notes: SarA, Staphylococcus aureus strain MRSA252; the 375 bp sarA coding region cloned in pET22b with the pelB leader removed; a 124-residue protein; the entry of strain MRSA252 is not recalled; No tag is described; The reverse primer appears to carry stop codons before the HindIII site, so the His tag of pET22b is probably not on the protein (surmise); Observed mass 14,635 D, theoretical mass 14,586 …
For the protein B1, the stoichiometry N (usually the number of molecules, sites or subunits per partner or assembly) was 2.
